Results published in patent US20170355766A1 (Xencor, published 2017).

How the values were obtained:
FcγRIIaR = molecular target: T1, FcγRIIaR (human, UniProt P12318); assay: SPR (Biacore)
T1 construct: recombinant receptor protein with 6xHis and GST tags; also called R131 FcγRIIa
T1 sequence (receptor, looked up): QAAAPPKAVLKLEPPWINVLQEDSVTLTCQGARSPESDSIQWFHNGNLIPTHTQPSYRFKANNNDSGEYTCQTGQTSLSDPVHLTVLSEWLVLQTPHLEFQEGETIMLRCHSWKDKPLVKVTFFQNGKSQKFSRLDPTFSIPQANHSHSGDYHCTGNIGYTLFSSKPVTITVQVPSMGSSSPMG

[1] = molecular target: T2, human V158 FcγRIIIa receptor protein (6xHis and GST tags) (human, UniProt P08637 17-208, limits assumed); assay: SPR (Biacore)
T2 construct: also called VIIIa

[2] = molecular target: T3, human FcγRI receptor protein (R&D Systems) (human, UniProt P12314 16-288); assay: SPR (Biacore)
T3 construct: also called CD64

[3] = molecular target: T4, human FcγRIIb receptor protein (R&D Systems) (human, UniProt P31994 46-217); assay: SPR (Biacore)
T4 construct: Analyte injected over antibodies captured on a protein A/G chip (Biacore); also called CD32b
T4 sequence (looked up): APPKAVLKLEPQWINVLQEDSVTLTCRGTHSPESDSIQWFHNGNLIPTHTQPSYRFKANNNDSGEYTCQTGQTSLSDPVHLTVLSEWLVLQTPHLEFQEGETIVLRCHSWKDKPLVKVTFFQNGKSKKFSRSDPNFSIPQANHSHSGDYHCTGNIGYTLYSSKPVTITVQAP

[4] = molecular target: T4, human FcγRIIb receptor protein (R&D …); assay: Biacore SPR, antibody captured on protein A/G, FcγR injected
Experimental: Variants were screened for receptor affinity using Biacore™ technology, also referred to as Biacore herein, a surface plasmon resonance (SPR) based technology for studying biomolecular interactions in real time. SPR measurements were performed using a Biacore 3000 instrument (Biacore, Piscataway, N.J.). A protein A/G (Pierce Biotechnology) CM5 biosensor chip (Biacore) was generated using a standard primary amine coupling protocol. All measurements were performed using HBS-EP buffer (10 mM HEPES pH 7.4, 0.15 M NaCl, 3 mM EDTA, 0.005% vol/vol surfactant P20, Biacore). Antibodies at 20 nM or 50 nM in HBS-EP buffer were immobilized on the protein A/G surface and FcγRs were injected. After each cycle, the surface was regenerated by injecting glycine buffer (10 mM, pH 1.5). Data were processed by zeroing time and response before the injection of FcγR and by subtracting appropriate nonspecific signals (response of reference channel and injection of running buffer). Kinetic analyses were performed by global fitting of binding data with a 1:1 Langmuir binding model using BIAevaluation software (Biacore).

[5] = molecular target: T5, human FcγRIIb on the cell surface (HEK293T cells transfected with human FcγRIIb cDNA; primary human B cells) (human, UniProt P31994 43-310); assay: flow cytometry on HEK293T cells transfected with human FcγRIIb, PE anti-human Fab detection
T5 chain: T4 sequence (looked up)

T3 sequence (P12314 16-288 limits assumed): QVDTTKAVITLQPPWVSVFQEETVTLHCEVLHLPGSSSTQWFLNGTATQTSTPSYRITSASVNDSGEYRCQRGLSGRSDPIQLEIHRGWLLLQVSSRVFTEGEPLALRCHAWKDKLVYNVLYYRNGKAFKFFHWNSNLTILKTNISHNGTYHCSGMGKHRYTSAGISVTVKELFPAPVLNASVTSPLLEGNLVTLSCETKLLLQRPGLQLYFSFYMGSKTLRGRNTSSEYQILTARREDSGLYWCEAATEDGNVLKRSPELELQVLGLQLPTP
T2 sequence (P08637 17-208 F176V limits assumed): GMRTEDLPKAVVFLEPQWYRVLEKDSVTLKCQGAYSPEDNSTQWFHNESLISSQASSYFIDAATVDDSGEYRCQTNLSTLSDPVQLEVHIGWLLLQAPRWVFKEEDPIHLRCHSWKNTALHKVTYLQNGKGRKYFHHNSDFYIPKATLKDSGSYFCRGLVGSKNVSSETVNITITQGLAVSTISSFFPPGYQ

Fold FcγRIIaR (FcγRIIaR): 275 fold
Fold FcγRIIIaV [1]: 0.038 fold
Fold FcγRI [2]: 1.5 fold
Fold FcγRIIb [3]: 242 fold
improvement in affinity relative to WT IgG1 [4]: > 2 orders of magnitude
fold EC50 relative to WT IgG1 [5]: ~320 fold
B1: anti-CD19 antibody S267E/L328F (HuAM4G7 Fv, human IgG1 Fc with S267E/L328F) (antibody)
heavy: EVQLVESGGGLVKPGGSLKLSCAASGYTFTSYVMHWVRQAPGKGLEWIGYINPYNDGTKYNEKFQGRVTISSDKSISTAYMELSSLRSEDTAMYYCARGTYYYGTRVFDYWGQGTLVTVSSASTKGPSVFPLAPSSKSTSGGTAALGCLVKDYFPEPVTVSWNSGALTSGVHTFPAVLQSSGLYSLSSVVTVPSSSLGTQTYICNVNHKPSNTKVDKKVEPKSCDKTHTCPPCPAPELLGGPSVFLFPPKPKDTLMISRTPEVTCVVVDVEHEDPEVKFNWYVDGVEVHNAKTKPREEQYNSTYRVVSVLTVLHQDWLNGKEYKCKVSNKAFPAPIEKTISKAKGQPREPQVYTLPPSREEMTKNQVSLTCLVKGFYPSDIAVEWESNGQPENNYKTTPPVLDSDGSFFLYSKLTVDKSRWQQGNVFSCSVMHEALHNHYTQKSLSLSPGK
light: DIVMTQSPATLSLSPGERATLSCRSSKSLQNVNGNTYLYWFQQKPGQSPQLLIYRMSNLNSGVPDRFSGSGSGTEFTLTISSLEPEDFAVYYCMQHLEYPITFGAGTKLEIKRTVAAPSVFIFPPSDEQLKSGTASVVCLLNNFYPREAKVQWKVDNALQSGNSQESVTEQDSKDSTYSLSSTLTLSKADYEKHKVYACEVTHQGLSSPVTKSFNRGEC
notes: They are treated here as one molecule; also called anti-CD19-S267E/L328F; a-CD19 S267E/L328F; copies: 2 + 2
